Assay results published in patent US6579848B1, “Depigmenting activity of agouti signal protein and peptides thereof” (The United States of America as represented by the …, priority 1995, dated 2003).

B1: agouti protein: Recombinant murine agouti signal protein purified from a baculovirus expression system (protein)
chain: MDVTRLLLATLVSFLCFFTVHSHLALEETLGDDRSLRSDSSMNSLDFSSVSIVALNKKSKKISRKEAEKRKRSSKKKASMKKVARPPPPSPCVATRDSCKPPAPACCDPCASCQCRFFGSACTCRVLNPNC

Columns and labels:
MSH receptor [1] = assay: Northern blotting of MSH receptor RNA in melan-a cells; assay type: cell-based, murine; conditions: for RNA level of MSH receptor: 10 nM, 5 days
Description: Total RNA was extracted from cells using an RNeasy total RNA isolation kit (QIAGEN, Catsworth, Calif.), following the manufacturer's instructions. 20 μg of total RNA was denatured, electrophoresed through 1.0% agarose gels, and transferred overnight at 23° C. to SureBlot nylon hybridization membranes (Oncor, Gaithersburg, Md.) in the standard manner. Filters were prehybridized for 3 hours at 45° C. with Hybrisol I solution (Oncor, 50% formamide, 10% dextran sulfate, 1% SDS and blocking reagent), and then hybridized with a ^32P-labeled probe. […] A commercially available cDNA probe specific for glyceraldehyde-3-phospho-dehydrogenase (GAPDH) was used to standardize RNA loading on the blots. The cDNA probes were labeled using random primer extension and heated to 100° C. for 10 minutes, then cooled on ice for 10 minutes prior to adding to the hybridization solution. Hybridization was performed with the radiolabeled probes in Hybrisol I (3×10^7 cpm/10 ml) overnight at 45° C. with gentle shaking. Following the incubation, the blots were washed for 10 minutes at 23° C. with 2×SSC/10% SDS, then for 10 minutes with 0.2×SSC/0.5% SDS, and finally for 10 minutes with 0.1×SSC/0.1% SDS. The blots were then exposed in phosphoroimager cassettes at 23° C. for 1 hour and the densities of the bands were scanned using ImageQuant software. The % control for each probe was corrected for initial loading using comparison with the GAPDH standard. […] This was repeated as necessary until no remaining probe could be detected.

TRP1 = assay: Northern blotting of TRP1 RNA in melan-a cells; assay type: cell-based, murine; conditions: for RNA level of TRP1: 10 nM, 5 days
Description: These techniques were performed as described previously (Aroca et al., 1993). Briefly, 2.0 μg of mRNA, isolated using a total RNA isolation kit and mRNA purification kit (Promega, Madison, Wis.), were electrophoresed and then blotted to Sure-Blot nylon membranes (Oncor, Gaithersburg, Md.), hybridized with ^32P-labeled probes, dehybridized and rehybridized with other probes again as necessary. TYRS-J, the probe specific for tyrosinase, was kindly provided by Drs. H. Yamamoto and T. Takeuchi, Sendai, Japan and is described in Yamamoto et al Japan J. Genetics Vol 62:271-274, 1987. pMT4, specific for TRP1, was provided by Dr. S. Shibahara, Sendai, Japan and is described in Shibahara, S. et al Nucleic Acid Res. Vol 14:2413-2427, 1986. TRP2a, specific for TRP2 was provided by Dr. I. Jackson, Edinburgh, Scotland and is described in Jackson, I et al. EMBO Vol 11:527-535, 1992. gp100, specific for silver, was provided by Dr. Y. Kawakami, Bethesda, Md. and is described in Kawakami et al PNAS, Vol. 91, 6458-6462, 1994.
(§1) Recombinant agouti protein was purified from baculovirus system by Dr. Michael Ollmann in Dr. Gregory Barsh's laboratory by methods known in the art. 2×10^6 cells were seeded per 15 cm diameter dish. The medium was changed everyday, and fresh agouti protein and/or αMSH added everyday usually at 10 nM. To examine transcriptional regulation, total RNA was isolated and Northern blotting performed by methods described in Example 1. The A26 probe to the MSH-R was provided by Dr. R. Cone and is described in Mountjoy et al. Science 257:1248-1251, 1992. At the translational level, metabolic labeling was used in conjunction with immunoprecipitation as described in Example 1. Western blotting and enzyme assay was used to examine function.
The effects of agouti protein on expression of TRP1, TRP2, and the MSH receptor were examined.
Total RNA was extracted from cells using an RNeasy total RNA isolation kit (QIAGEN, Catsworth, Calif.), following the manufacturer's instructions. […]

MSH receptor [2] = assay: Northern blotting of MSH receptor RNA in B16F10 melanoma cells; assay type: cell-based; conditions: B16F10 murine melanoma cells, 10 nM, 5 days
Description: (§2) The melan-a melanocyte cell line was used as described in Example 1. This clonal line was derived from C57B1 nonagouti black mice. The growth medium was minimum essential medium containing 200 nM TPA. B16F10 melanoma cells were also used to compare the effect of agouti protein with melan-a. These cells were grown in Dulbecco's modified Eagle medium.
as §1
(§3) The effect of agouti protein and MSH observed for melan-a cells was confirmed using B16F10 murine melanoma cells. Similar effects were observed (FIG. 13).

[3] = Retention of activity at 37° in water or tissue culture media; assay type: physicochemical
Description: (§4) Recombinant mouse ASP was generated and purified using a baculovirus expression system as described in Ollmann et al. (in preparation). […] The experiment described in FIG. 2 has also been repeated with an ASP preparation ≧99% pure with virtually identical results.

melan-a cells = assay: Pigmentation and ultrastructure of melan-a cells; assay type: cell-based, murine
Description: Cells were harvested, centrifuged for 5 minutes at 14,000 g at 4° C., and fixed for 2 hours at 23° C. in 2% glutaraldehyde-2% paraformaldehyde in 0.1 M sodium cacodylate buffer, pH 7.3; the fixative was then removed and the samples were stored in phosphate-buffered saline containing 2% sucrose at 4° C. Samples were subsequently processed with graded alcohols and embedded in epoxy resin for electron microscopy in the usual manner. Thin sections were stained with uranyl acetate and lead citrate, viewed and photographed with a Zeiss EM10 electron microscope, as previously detailed (Prota et al., 1995).

MC1-R = assay: Inhibition of activation of the MC1-R; assay type: biochemical; conditions: preparation ≧90% pure
Description: as §4

tyrosinase = assay: Northern blotting of tyrosinase RNA in B16F10 melanoma cells; assay type: cell-based; conditions: B16F10 murine melanoma cells, 10 nM, 5 days
Description: as §2, §1, §3

[4] = test system: melan-a murine melanocytes; assay: Chemical analysis of eumelanin and pheomelanin contents of melan-a melanocytes; assay type: cell-based; conditions: black melan-a murine melanocytes in vitro
Description: Chemical degradation and analysis of eumelanin and pheomelanin contents were performed and quantitated as previously reported (Ito and Fujita, 1985).

[5] = 24 hours, different concentrations

Molecule | RNA level of MSH receptor (MSH receptor [1]) | RNA level of TRP1 (TRP1) | level of RNA for the MSH receptor (MSH receptor [1]; [5]) | MSH receptor expression (MSH receptor [2]) | time for which activity is retained [3] | pigmentation of the cells (melan-a cells; black melan-a murine melanocytes in vitro) | amount of melanosomes (ultrastructural study) (melan-a cells; melan-a cells, 10 nM, 5 days) | melanosome structure (ultrastructural study) (melan-a cells; melan-a cells, 10 nM, 5 days) | color of cell pellet (melan-a cells; melan-a cells, 10 nM, 5 days incubation) | Ki (MC1-R) [nM] | level of TRP1 RNA (TRP1; [5]) | tyrosinase RNA (tyrosinase) | eumelanin production [4] | synthesis of pheomelanin [4]
α-melanocyte stimulating hormone [MSH, reference compound] | no significant increase | no significant increase | – | – | – | – | – | – | – | – | – | – | – | –
B1 | no significant effect | nearly a fivefold decrease | no significant effect | elevated | more than 48 hours | markedly inhibited | decreased | pheomelanosome-like structures were found | changed from black to light brown | 0.22 | reduced, but not to the same extent as tyrosinase RNA | did not reduce tyrosinase RNA below baseline | significantly decreased | increased
